In patent publication US20180273584A1 (REGENTS OF THE UNIVERSITY OF MICHIGAN, published 2018):
Primed or numbered codes have the meaning given here. Ends that are not written are not given here. Cy5.5 = Cy5.5: Cy5.5 fluorophore (fluorescent dye); Cy5.5″ = Cy5.5 fluorophore

Experiments:
[1] = biological target: HER2 over expressed in mouse colonic neoplasia (CPC;Apc mice) (mouse) (UniProt P70424); experiment: in vivo NIR fluorescence endoscopy, topical peptide, n=7 adenomas in mice, target-to-background ratio
Chain of HER2 over expressed in mouse colonic neoplasia (CPC;Apc mice) (mouse) (P70424 23-1256): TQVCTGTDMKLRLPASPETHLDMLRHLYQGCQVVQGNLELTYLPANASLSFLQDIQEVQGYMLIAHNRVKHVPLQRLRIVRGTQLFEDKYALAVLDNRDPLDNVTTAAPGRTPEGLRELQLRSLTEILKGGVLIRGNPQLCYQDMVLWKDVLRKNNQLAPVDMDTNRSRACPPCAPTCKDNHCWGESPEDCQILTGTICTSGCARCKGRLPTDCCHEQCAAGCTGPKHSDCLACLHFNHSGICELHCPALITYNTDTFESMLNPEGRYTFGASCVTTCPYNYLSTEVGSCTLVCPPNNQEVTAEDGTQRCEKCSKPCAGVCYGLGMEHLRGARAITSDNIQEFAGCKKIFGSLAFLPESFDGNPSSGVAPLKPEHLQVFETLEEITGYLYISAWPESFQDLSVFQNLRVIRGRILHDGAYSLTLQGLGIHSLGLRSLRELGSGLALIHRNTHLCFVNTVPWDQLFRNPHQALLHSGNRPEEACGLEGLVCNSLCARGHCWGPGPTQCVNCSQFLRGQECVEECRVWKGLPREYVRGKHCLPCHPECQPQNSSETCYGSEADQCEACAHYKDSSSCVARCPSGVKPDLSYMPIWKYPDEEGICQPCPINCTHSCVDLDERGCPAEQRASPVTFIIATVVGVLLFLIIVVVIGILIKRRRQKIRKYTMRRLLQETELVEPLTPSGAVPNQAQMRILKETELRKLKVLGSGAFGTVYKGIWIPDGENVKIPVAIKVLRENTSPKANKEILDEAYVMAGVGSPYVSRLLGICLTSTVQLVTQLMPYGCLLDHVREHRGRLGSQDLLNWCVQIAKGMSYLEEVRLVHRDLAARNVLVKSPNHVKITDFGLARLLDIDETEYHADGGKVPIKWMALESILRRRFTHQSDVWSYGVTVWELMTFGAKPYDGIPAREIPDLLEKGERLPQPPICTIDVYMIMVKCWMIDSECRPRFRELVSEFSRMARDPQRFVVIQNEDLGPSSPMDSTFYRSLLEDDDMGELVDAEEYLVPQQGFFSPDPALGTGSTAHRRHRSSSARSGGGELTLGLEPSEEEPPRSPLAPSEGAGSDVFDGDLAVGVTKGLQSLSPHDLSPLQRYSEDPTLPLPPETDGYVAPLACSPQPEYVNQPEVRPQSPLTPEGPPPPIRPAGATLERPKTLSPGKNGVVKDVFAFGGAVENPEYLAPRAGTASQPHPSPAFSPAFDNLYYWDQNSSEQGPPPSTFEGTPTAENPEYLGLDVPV

[2] = biological target: T1, HER2 over expressed in mouse colonic neoplasia (CPC;Apc mice) (mouse, UniProt P70424 23-1256); experiment: fluorescence imaging of mouse colon after intravenous KSP*-Cy5.5, n=4 mice
T1 construct: whole, on cells; no isolated mouse HER2 was tested; also called mouse HER2
T1 sequence (P70424 23-1256): as above

[3] = biological target: T2, Human epidermal growth factor receptor 2 (HER2) (human, UniProt P04626 23-1255); experiment: flow cytometry on HT29 cells, apparent dissociation constant, 0-200 nM peptide, 4 °C 1 h
T2 construct: whole, on cells; also called ErbB2
Procedure: We measured the apparent dissociation constant of the HER2 peptide reagent to HT29 cells as an assessment of binding affinity. KSP*-Cy5.5 was serially diluted in PBS at concentrations of 0, 5, 10, 25, 50, 100, and 200 nM. ˜105 HT29 cells were incubated with KSP*-Cy5.5 at 4° C. for 1 hour and washed with cold PBS. The mean fluorescence intensities were measured with flow cytometry (BD® LSRII, BD Biosciences). The equilibrium dissociation constant kd=1/ka was calculated by performing a least squares fit of the data to the non-linear equation I, (I0+Imaxka[X])/([…]). I0 and Imax are the initial and maximum fluorescence intensities, corresponding to no peptide reagent and at saturation, respectively, and [X] represents the concentration of the bound peptide reagent. Graphpad prism analysis software (Graphpad Software Inc, La Jolla, Calif.) was used to calculate kd and ka.
We evaluated the binding parameters of KSP*-Cy5.5 to HT29 cells using flow cytometry.

[4] = biological target: T1, HER2 over expressed in mouse colonic …; experiment: in vivo NIR fluorescence endoscopy, topical peptide, n=15 adenomas in mice, target-to-background ratio
Procedure: Mouse imaging studies were performed with approval of the University of Michigan Committee on the Use and Care of Animals (UCUCA). The mice were housed in pathogen-free conditions and supplied water ad libitum under controlled conditions of humidity (50±10%), light (12/12 hour light/dark cycle) and temperature (25° C.). Anesthesia was induced and maintained via a nose cone with inhaled isoflurane mixed with oxygen at a concentration of 2-4% at a flow rate of ˜0.5 L/min. The colon was first rinsed with tap water to remove mucous and debris. White light illumination was used first to identify anatomic landmarks, including polyps, mucosal folds, colonic segment, and distance of endoscope tip from anus, to register the in vivo images with histology. […] During imaging, we recorded the 1) distance between the endoscope tip and the anus and 2) clockwise location of each region of high intensity. […]
We evaluated specific binding of KSP*-Cy5.5 to colonic adenomas that over express HER2 in CPC; Apc mice This mouse was genetically engineered to somatically delete an Apc allele under Cre regulation, and develops polypoid and flat adenomas spontaneously in the colon. […] Imaging was performed in vivo using a small animal endoscope that is sensitive to NIR fluorescence. […]

[5] = biological target: T2, Human epidermal growth factor receptor …; experiment: confocal microscopy, 10 µM FITC-labeled peptide on Flo1-HER2 cells against Q-hTERT control cells
Procedure: Flo-1-Her2 and Q-hTERT cells were seeded with ˜7,500 cells in 12-well plates with 1.5 mm thick glass cover slides, and grown to ˜70% confluence. The cells were gently washed with cold PBS before adding the peptide. 10 μM of FITC-labeled peptide was added to each well and incubated at 4° C. for 1 hour. After incubation, the cells were washed 3× with PBS, fixed in ice-cold 4% PFA for 10 min, and washed 1× with PBS. Subsequently, the cells were embedded on microscope slides with ProLong Gold reagent containing DAPI (Invitrogen), and the slides where analyzed with a Leica TCS SP5 confocal microscope using 63× oil immersion objective (Leica Microsystems, Leider Lane IL). The FITC-labeled peptides and anti-HER2 antibody were tested in quadruplicate.
We attached a FITC label to each peptide, and imaged binding to Flo1-HER2 and Q-hTERT cells (control) using confocal microscopy. Western blot of these cells show difference in HER2 expression, FIG. 1B. We selected KSPNPRF based on the highest mean fluorescence intensity with binding to Flo1-HER2, FIG. 1C. From our model, this peptide binds to HER2 domain 3. […] The fluorescence emission peak occurs at 708 nm in the NIR spectrum. For both peptides, we achieved >98% purity with HPLC, and measured an experimental mass-to-charge (m/z) ratio on mass spectrometry of 1794.98, which agrees with expected values, FIG. 8A,B.

## PPSNFKRGGGSK(Cy5.5″)-NH2 [PPS*-Cy5.5 (scrambled control peptide PPSNFKR linked to Cy5.5 via GGGSK)]
[1]
  mean T/B ratio: 1.46

B1: KSP*-Cy5.5 (KSPNPRF peptide labeled with Cy5.5 fluorophore via a GGGSK linker on the C-terminus) (peptide)
peptide: KSPNPRFGGGSK(Cy5.5)-NH2
notes: Synthetic L-amino-acid peptide, Fmoc solid-phase synthesis; also called HER2 peptide reagent; KSP*-Cy5.5 peptide reagent
[2]
  fold mean fluorescence intensity, adenomas against surrounding normal mucosa: 5.03 fold
[3]
  Kd: 21 nM
[4]
  mean T/B ratio: 3.64

## KSPNPRF (also: FITC label, site of attachment not given here, also called FITC-labeled peptide) [FITC-labeled KSPNPRF (PEP1)]
[5]
  binding result: binds
